This data set concerns the molecule itself. As to the kind of experiment: electron microscopy.

B1: Taz1pΔC (C-terminally truncated version of the Taz1 protein) (domain or fragment, S. pombe, UniProt P79005 1-556, looked up)
chain: MISVQSTETIQKVLENEGDQQFDKEVVQNSDSNIETGQISDSLTKAVEERAETESSSNLSNFTTSESESSKPAYCFNSHSQNMAEGSISIPVISHSMNVENEVSTAEGQDSRTGESENDQNAMIVRSIWDIEKASLLVNDCQNIANMAEQKVMMVSAIFSESSKDIVNPESFSERLGKETVKDLYEFNEQLTTKYGLEFRTIFFSYIRKYDAYWCLFEDLEKPLKSIQFFTGLIDLLDNTNKHLTLRSIVLDALLSADEEDSFYGDALVLFEELVIRYFGTDSNPSIDASEFILSCLPYTSLDALNVVCGQVWKSQKICDFLKSTIGNTSNSPLQLRASFPAFVNAVIHFLLEFKNVRRLERKDLSVKGMLYDSDSQQILNRLRERVSGSTAQSADEASGHESDASEDTFSERTLGLNSIDNTEISEVVSLGLVSSALDKITGLLSADNLSETVSQARDFSHTLSKSLKSRAKSLSQKEAANRSKLIAKRGDNLRREASLSSEQDDLSEDFPPVRESDEQESRSGGRSSAMRVSIERSAARSGTRRSQGNPYEGYR
As to B1, the binding result is “binds”.

(Values after publication PMC2846270 (Biochemical and biophysical research communications, 2010).)
